Measurements from patent US20220033462A1 (ALLOGENE THERAPEUTICS, published 2022).

T1: recombinant human CD19-mouse IgG Fc fusion protein (human; mouse, UniProt P15391 20-291, limits assumed)
T1 construct: Staining reagent; not shown: mouse IgG Fc
T1 sequence (looked up): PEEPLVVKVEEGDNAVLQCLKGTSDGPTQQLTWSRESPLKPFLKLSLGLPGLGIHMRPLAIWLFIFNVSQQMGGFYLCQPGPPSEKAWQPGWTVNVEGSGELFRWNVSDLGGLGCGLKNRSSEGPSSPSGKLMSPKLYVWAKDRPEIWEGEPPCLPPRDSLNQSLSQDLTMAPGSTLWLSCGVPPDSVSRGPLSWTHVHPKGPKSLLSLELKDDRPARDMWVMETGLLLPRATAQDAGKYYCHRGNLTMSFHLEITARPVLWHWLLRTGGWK

B1: N-CAR PD1 (SEQ ID No 1999 with intracellular domain SEQ ID No 2000) (other)
chain: EVQLQQSGPELVKPGTSVRISCKTSGYTFTEYTIHWVKQSHGKSLEWIGNINPNNGGTTYNQKFEDKATLTVDKSSSTAYMELRSLTSEDSAVYYCAAGWNFDYWGQGTTVTVSSGGGGSGGGGSGGGGSDIVMTQSHKFMSTSVGDRVSIICKASQDVGTAVDWYQQKPGQSPKLLIYWASTRHTGVPDRFTGSGSGTDFTLTITNVQSEDLADYFCQQYNSYPLTFGAGTMLDLKRAAATERRAEVPTAHPSPSPRPAGQFQTLVVGVVGGLLGSLVLLVWVLAVICSRAARGTIGARRTGQPLKEDPSAVPVFSVDYGELDFQWREKTPEPPVPCVPEQTEYATIVFPSGMGTSSPARRGSADGPRSAQPLRPEDGHCSWPL
B2: N-CAR BTLA (SEQ ID No 1999 with intracellular domain SEQ ID No 2001) (other)
chain: EVQLQQSGPELVKPGTSVRISCKTSGYTFTEYTIHWVKQSHGKSLEWIGNINPNNGGTTYNQKFEDKATLTVDKSSSTAYMELRSLTSEDSAVYYCAAGWNFDYWGQGTTVTVSSGGGGSGGGGSGGGGSDIVMTQSHKFMSTSVGDRVSIICKASQDVGTAVDWYQQKPGQSPKLLIYWASTRHTGVPDRFTGSGSGTDFTLTITNVQSEDLADYFCQQYNSYPLTFGAGTMLDLKRAAATERRAEVPTAHPSPSPRPAGQFQTLVVGVVGGLLGSLVLLVWVLAVIRRHQGKQNELSDTAGREINLVDAHLKSEQTEASTRQNSQVLLSETGIYDNDPDLCFRMQEGSEVYSNPCLEENKPGIVYASLNHSVIGPNSRLARNVKEAPTEYASICVRS
B3: N-CAR CD244 (SEQ ID No 1999 with intracellular domain SEQ ID No 2002) (other)
chain: EVQLQQSGPELVKPGTSVRISCKTSGYTFTEYTIHWVKQSHGKSLEWIGNINPNNGGTTYNQKFEDKATLTVDKSSSTAYMELRSLTSEDSAVYYCAAGWNFDYWGQGTTVTVSSGGGGSGGGGSGGGGSDIVMTQSHKFMSTSVGDRVSIICKASQDVGTAVDWYQQKPGQSPKLLIYWASTRHTGVPDRFTGSGSGTDFTLTITNVQSEDLADYFCQQYNSYPLTFGAGTMLDLKRAAATERRAEVPTAHPSPSPRPAGQFQTLVVGVVGGLLGSLVLLVWVLAVIWRRKRKEKQSETSPKEFLTIYEDVKDLKTRRNHEQEQTFPGGGSTIYSMIQSQSSAPTSQEPAYTLYSLIQPSRKSGSRKRNHSPSFNSTIYEVIGKSQPKAQNPARLSRKELENFDVYS
B4: N-CAR PD1-CTLA4 (SEQ ID No 1999 with intracellular domain SEQ ID No 2003) (other)
chain: EVQLQQSGPELVKPGTSVRISCKTSGYTFTEYTIHWVKQSHGKSLEWIGNINPNNGGTTYNQKFEDKATLTVDKSSSTAYMELRSLTSEDSAVYYCAAGWNFDYWGQGTTVTVSSGGGGSGGGGSGGGGSDIVMTQSHKFMSTSVGDRVSIICKASQDVGTAVDWYQQKPGQSPKLLIYWASTRHTGVPDRFTGSGSGTDFTLTITNVQSEDLADYFCQQYNSYPLTFGAGTMLDLKRAAATERRAEVPTAHPSPSPRPAGQFQTLVVGVVGGLLGSLVLLVWVLAVICSRAARGTIGARRTGQPLKEDPSAVPVFSVDYGELDFQWREKTPEPPVPCVPEQTEYATIVFPSGMGTSSPARRGSADGPRSAQPLRPEDGHCSWPLAVSLSKMLKKRSPLTTGVYVKMPPTEPECEKQFQPYFIPIN
B5: N-CAR PD1-LAG3 (SEQ ID No 1999 with intracellular domain SEQ ID No 2004) (other)
chain: EVQLQQSGPELVKPGTSVRISCKTSGYTFTEYTIHWVKQSHGKSLEWIGNINPNNGGTTYNQKFEDKATLTVDKSSSTAYMELRSLTSEDSAVYYCAAGWNFDYWGQGTTVTVSSGGGGSGGGGSGGGGSDIVMTQSHKFMSTSVGDRVSIICKASQDVGTAVDWYQQKPGQSPKLLIYWASTRHTGVPDRFTGSGSGTDFTLTITNVQSEDLADYFCQQYNSYPLTFGAGTMLDLKRAAATERRAEVPTAHPSPSPRPAGQFQTLVVGVVGGLLGSLVLLVWVLAVICSRAARGTIGARRTGQPLKEDPSAVPVFSVDYGELDFQWREKTPEPPVPCVPEQTEYATIVFPSGMGTSSPARRGSADGPRSAQPLRPEDGHCSWPLHLWRRQWRPRRFSALEQGIHPPQAQSKIEELEQEPEPEPEPEPEPEPEPEPEQL
B6: P-CAR2 (SEQ ID No 2020) (other)
chain: EVKLQQSGAELVRPGSSVKISCKASGYAFSSYWMNWVKQRPGQGLEWIGQIYPGDGDTNYNGKFKGQATLTADKSSSTAYMQLSGLTSEDSAVYFCARKTISSVVDFYFDYWGQGTTVTVSSGGGGSGGGGSGGGGSDIELTQSPKFMSTSVGDRVSVTCKASQNVGTNVAWYQQKPGQSPKPLIYSATYRNSGVPDRFTGSGSGTDFTLTITNVQSKDLADYFCQQYNRYPYTSGGGTKLEIKRAAAIEVMYPPPYLDNEKSNGTIIHVKGKHLCPSPLFPGPSKPFWVLVVVGGVLACYSLLVTVAFIIFWVRSKRSRLLHSDYMNMTPRRPGPTRKHYQPYAPPRDFAAYRSRVKFSRSADAPAYQQGQNQLYNELNLGRREEYDVLDKRRGRDPEMGGKPRRKNPQEGLYNELQKDKMAEAYSEIGMKGERRRGKGHDGLYQGLSTATKDTYDALHMQALPPR
notes: Chimeric antigen receptor on the surface of transduced reporter Jurkat cells; also called positive signaling CAR with scFv from anti-CD19 antibody SJ25C1

Columns and labels:
[1] = biological target: T2, biotinylated recombinant human PSMA-human IgG1 Fc fusion protein (human, UniProt Q04609 44-750, biotinylated (sites not given)); assay: flow cytometry, reporter Jurkat cells co-expressing P-CAR2 (FIGS. 6-9)
T2 construct: Staining reagent; not shown: human IgG1 Fc

[2] = biological target: T1, recombinant human CD19-mouse IgG Fc …; assay: flow cytometry, NFAT-/NFkB-luciferase reporter Jurkat cells expressing P-CAR2 (FIGS. 6-9)

T2 sequence (Q04609 44-750 limits assumed): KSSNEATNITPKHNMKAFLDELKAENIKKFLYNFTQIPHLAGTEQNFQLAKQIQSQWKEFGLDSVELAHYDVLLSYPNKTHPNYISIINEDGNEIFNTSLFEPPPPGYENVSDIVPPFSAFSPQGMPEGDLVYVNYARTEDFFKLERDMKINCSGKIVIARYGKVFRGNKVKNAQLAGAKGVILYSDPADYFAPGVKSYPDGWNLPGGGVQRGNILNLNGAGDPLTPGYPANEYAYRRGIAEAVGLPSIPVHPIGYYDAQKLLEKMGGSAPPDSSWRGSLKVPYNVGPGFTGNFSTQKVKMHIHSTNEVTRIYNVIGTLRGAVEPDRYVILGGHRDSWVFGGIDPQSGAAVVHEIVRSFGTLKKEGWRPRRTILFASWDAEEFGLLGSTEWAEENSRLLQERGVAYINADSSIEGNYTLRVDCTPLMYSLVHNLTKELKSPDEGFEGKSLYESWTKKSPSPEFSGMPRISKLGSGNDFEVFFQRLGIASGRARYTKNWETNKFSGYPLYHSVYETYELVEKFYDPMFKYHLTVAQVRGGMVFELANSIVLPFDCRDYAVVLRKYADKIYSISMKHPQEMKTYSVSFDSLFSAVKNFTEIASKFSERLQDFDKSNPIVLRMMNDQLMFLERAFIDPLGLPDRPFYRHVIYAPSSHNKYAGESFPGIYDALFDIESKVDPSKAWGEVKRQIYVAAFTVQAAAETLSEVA

Row | Binder | binding result [1] | binding result [2]
1 | B1 | binds | –
2 | B2 | binds | –
3 | B3 | binds | –
4 | B4 | binds | –
5 | B5 | binds | –
6 | B6 | – | binds
